{"source": "patent US20120220015", "key": {"[1]": {"molecular_target": "T1, α2-antiplasmin (UniProt P08697)", "T1 sequence": "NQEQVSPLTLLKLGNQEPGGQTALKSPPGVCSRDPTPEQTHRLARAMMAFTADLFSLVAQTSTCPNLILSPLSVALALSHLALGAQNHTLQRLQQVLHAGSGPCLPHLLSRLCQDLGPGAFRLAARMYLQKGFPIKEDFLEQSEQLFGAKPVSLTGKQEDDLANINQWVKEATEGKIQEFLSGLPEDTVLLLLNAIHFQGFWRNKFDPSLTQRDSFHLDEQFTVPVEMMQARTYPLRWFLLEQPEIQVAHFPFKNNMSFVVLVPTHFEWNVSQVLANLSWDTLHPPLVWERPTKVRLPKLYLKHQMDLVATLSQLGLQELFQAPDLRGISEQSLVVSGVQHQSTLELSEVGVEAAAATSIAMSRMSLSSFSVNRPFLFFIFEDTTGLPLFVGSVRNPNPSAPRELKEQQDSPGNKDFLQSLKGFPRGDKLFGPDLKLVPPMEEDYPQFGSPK"}, "[2]": {"molecular_target": "fibrin (clot formed from purified fibrinogen with α-thrombin) (UniProt P02671)", "sequence (P02671 36-629, chain 1 of 3)": "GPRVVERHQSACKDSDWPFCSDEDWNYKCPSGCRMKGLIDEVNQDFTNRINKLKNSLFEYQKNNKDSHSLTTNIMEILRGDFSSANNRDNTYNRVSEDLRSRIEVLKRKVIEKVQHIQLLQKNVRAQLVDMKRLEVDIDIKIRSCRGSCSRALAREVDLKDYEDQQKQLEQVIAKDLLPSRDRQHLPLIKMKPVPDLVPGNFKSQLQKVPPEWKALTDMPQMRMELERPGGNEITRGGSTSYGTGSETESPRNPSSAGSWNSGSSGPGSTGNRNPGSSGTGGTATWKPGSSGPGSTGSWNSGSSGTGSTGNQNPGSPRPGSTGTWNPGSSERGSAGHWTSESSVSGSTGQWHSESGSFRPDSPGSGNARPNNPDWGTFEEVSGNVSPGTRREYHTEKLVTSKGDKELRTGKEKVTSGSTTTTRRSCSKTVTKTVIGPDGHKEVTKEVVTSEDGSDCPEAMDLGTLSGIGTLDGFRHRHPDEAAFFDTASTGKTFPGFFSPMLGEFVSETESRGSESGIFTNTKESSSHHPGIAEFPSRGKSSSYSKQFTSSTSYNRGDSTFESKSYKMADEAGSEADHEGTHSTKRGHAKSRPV", "sequence (chain, as listed by the source, chain 2 of 3)": "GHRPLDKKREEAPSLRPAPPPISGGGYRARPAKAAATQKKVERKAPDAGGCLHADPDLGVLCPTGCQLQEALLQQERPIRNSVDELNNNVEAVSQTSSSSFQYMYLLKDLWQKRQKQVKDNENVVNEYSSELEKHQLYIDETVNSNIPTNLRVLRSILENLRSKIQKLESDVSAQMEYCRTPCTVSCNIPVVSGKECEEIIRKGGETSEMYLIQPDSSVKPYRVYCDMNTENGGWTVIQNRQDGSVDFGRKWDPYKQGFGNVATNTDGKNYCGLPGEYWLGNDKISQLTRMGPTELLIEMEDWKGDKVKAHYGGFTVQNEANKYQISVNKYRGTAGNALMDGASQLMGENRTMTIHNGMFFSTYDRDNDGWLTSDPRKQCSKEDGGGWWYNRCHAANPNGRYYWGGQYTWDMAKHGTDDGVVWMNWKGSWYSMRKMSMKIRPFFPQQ", "sequence (chain, as listed by the source, chain 3 of 3)": "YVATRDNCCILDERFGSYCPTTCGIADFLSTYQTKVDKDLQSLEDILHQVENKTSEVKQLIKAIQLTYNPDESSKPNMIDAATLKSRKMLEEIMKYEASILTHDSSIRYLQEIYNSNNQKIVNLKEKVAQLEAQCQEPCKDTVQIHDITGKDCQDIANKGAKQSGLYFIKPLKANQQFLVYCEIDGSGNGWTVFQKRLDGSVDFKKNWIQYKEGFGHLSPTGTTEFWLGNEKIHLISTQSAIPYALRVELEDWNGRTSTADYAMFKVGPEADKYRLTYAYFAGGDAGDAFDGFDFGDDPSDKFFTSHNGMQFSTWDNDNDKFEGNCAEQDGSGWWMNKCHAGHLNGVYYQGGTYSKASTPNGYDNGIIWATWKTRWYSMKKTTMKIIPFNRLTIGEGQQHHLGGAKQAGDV"}}}
{"substance": "human reference plasmin (commercial, human-derived plasmin)", "values": [{"measurement": "plasmin activity (S-2403 hydrolysis at 405 nm) after 30 minutes pre-incubation with α2-AP, plasmin:α2-AP molar ratio of 1:1", "setting": "[1]", "result": "no plasmin activity was detected for human, BAP12-B2-150, or BAP01-B1-230 plasmin, indicating that the inhibition was complete"}, {"measurement": "fibrin clot lysis (decrease of turbidity at 340 nm), plasmin at 500, 250, 125 and 62 nM", "setting": "[2]", "result": "steeper slopes of the curves with increasing plasmin concentrations"}]}
